Results taken from patent US11766444B2, “Pharmaceutical composition for preventing or treating degenerative brain disorders including HDL-APOM-S1P as active ingredient” (Kyungpook National University Industry-Academic Cooperation …, priority 2017, dated 2023).

Assays:
Assay type in all cases: in vivo, mouse
[1] = S1P, ApoM, HDL-S1P and HDL-ApoM levels in plasma of APP/PS1 mice after HDL-ApoM-S1P loading; details: i.v. 25 μl twice a week for 4 weeks (8 times), vs untreated APP/PS1 mice
Text: (§1) Transgenic mice overexpressing hAPP695swe (APPswe) and presenilin-1M146V (PS1) mutations were used as mouse models of the Alzheimer's disease. These are mouse lines produced by GlaxoSmithKline (Harlow, UK) with the standard technology for C57BL background (Charles River, UK), which double heterozygote mutant mice (APP/PS1 tg mice) were produced by backcrossing APPswe mice with pure C57BL/6 backgrounds and crossing PS1 mice
(§2) After collecting blood from mice, the obtained blood was separated into erythrocytes and plasma by centrifugation. The separated erythrocytes are reacted with 10 uM sphingosine at 37° C. for 1 hour, and then reacted for 1 hour at 37° C. after mixing again with the separated plasma. After completion of the reaction, erythrocytes and plasma were separated by centrifugation, and only the plasma was collected again. The plasma thus obtained was loaded with S1P in HDL (HDL-ApoM-S1P loading), which was illustrated in FIG. 1.
The plasma solution thus obtained was intravenously injected 25 μl into mice twice a week for 4 weeks (total 8 times) according to the experimental outline shown in FIG. 2. As a control group, 3 μM S1P (Avanti) and […] ApoM (Mybiosource, SEQ ID NO: 1) were injected intravenously with 25 μl in mice twice a week for 4 weeks (eight times in total).
To collect blood from mouse models (APP/PS1 tg mice or APP/PS1/ApoM tg mice) and normal control mice (WT), the mice were anesthetized first, and 500 μl to 700 μl of blood were collected in heparin tubes (BD Falcon) by cardiac drawing. Each blood sample was then centrifuged at 1,200 rpm for 5 minutes to separate plasma from the supernatant. This plasma sample was stored at −80° C. before being used for analysis.
60 μl of plasma sample was placed in the ultrafast centrifuge tube, and then the same amount of PBS (Gibco) solution was added to form a layer on the plasma. A high speed centrifuge (HITACHI cp100wx Centrifuge P70AT rotor) was used to centrifuge at 70,000 rpm for 3 hours at 4° C. 60 μl of the lower layer of the sample separated into two layers was transferred into a new ultra-centrifuge tube. […]
Extraction and quantification of S1P was performed in the following manner. […] The dried lipid extract was resuspended in 25 μl of 0.2% Igepal CA-630 (Sigma-Aldrich), and the concentration level of each lipid was quantified by the UPLC system using the column ACQUITY BEH Shield RP18 1.7 μm 2.1×50 mm (186002853) and 0.1% of NH4OH.
Using a commercial ELISA kit (CUSABIO Human ApoM ELISA Kit and Mouse ApoM ELISA Kit), the amount of apolipoprotein M (ApoM) contained in the mouse plasma or HDL fractionated therefrom was quantified according to the manufacturer's protocol. […]

amyloid-β = assay: Amyloid-β deposition in brain tissue (cerebral cortex), thioflavin S staining and immunofluorescence; details: APP/PS1 mice, vs 9-month-old untreated APP/PS1 mice
Text: as §1
(§3) After collecting blood from mice, the obtained blood was separated into erythrocytes and plasma by centrifugation. The separated erythrocytes are reacted with 10 uM sphingosine at 37° C. for 1 hour, and then reacted for 1 hour at 37° C. after mixing again with the separated plasma. […]
(§4) After fixing the cerebral (especially cortex) and hippocampus of mice with 4% paraformaldehyde, the immobilized tissues were incubated with 0.5% thioflavin S (Sigma-Aldrich) or anti-20G10 against Aβ42 (mouse, 1:1000), anti-G30 against Aβ40 (rabbit, 1:1000), anti-lba-1 (rabbit, 1:500, Wako), and anti-GFAP (rabbit, 1:500, DAKO), respectively. […] The sites were analyzed using a laser scanning confocal microscope or Olympus BX51 microscope equipped with Fluoview SV1000 imaging software (Olympus FV1000, Japan). Metamorph software (Molecular Devices) was used to quantify the percentage of area of stained area to area of total tissue. […]

tau = assay: Tau deposition in brain tissue (AT8 immunofluorescence); details: APP/PS1 mice, cerebral cortex, vs 9-month-old untreated APP/PS1 mice
Text: as §1, §3, §4

microglia = assay: Activity of microglia (Iba1 staining), neuroinflammatory response; details: APP/PS1 mice, brain tissue, vs untreated APP/PS1 mice
Text: as §1, §3, §4

astrocytes = assay: Activity of astrocytes (GFAP staining), neuroinflammatory response; details: APP/PS1 mice, brain tissue, vs untreated APP/PS1 mice
Text: as §1, §3, §4

APP/PS1 mice = assay: Morris water maze (MWM) test; details: 10 days training, probe trial day 11
Text: as §1, §2
The plasma solution thus obtained was intravenously injected 25 μl into mice twice a week for 4 weeks (total 8 times) according to the experimental outline shown in FIG. 2. […]
In order to identify potential effects on learning and memory, Morris water maze (MWM) and fear conditioning experiments were performed according to known methods. […] All experiments were recorded using a charge-coupled device (CCD) camera with video monitor and computer. […]

B1: ApoM: control, ApoM (Mybiosource, SEQ ID NO: 1) (protein)
chain: MFHQIWAALLYFYGIILNSIYQCPEHSQLTTLGVDGKEFPEVHLGQWYFIAGAAPTKEELATFDPVDNIVFNMAAGSAPMQLHLRATIRMKDGLCVPRKWIYHLTEGSTDLRTEGRPDMKTELFSSSCPGGIMLNETGQGYQRFLLYNRSPHPPEKCVEEFKSLTSCLDSKAFLLTPRNQEACELSNN
modifications: ApoM
level of ApoM in plasma [1]: did not show a difference | level of HDL-ApoM in the HDL fraction [1]: did not show a difference | level of HDL-S1P in the HDL fraction [1]: did not show a difference | level of S1P in plasma [1]: did not show a difference | Aβ40 deposition in brain tissue (amyloid-β): did not show a significant difference | Aβ42 deposition in brain tissue (amyloid-β): did not show a significant difference | tau deposition (AT8) in brain tissue (tau): did not show a significant difference | inflammatory activity of microglia (microglia): no significant difference | inflammatory activity of astrocytes (astrocytes): no significant difference | learning and memory (spatial memory formation), MWM (APP/PS1 mice): severe impairment
